Measured values as given in patent US20190119357A1, “MESSENGER RIBONUCLEIC ACIDS FOR THE PRODUCTION OF INTRACELLULAR BINDING POLYPEPTIDES AND METHODS OF USE THEREOF” (ModernaTX, Inc., priority 2015, published 2019).
Entries after “also recorded” stand apart in the source; their conditions may differ.

Tests used:
[1] = test system: Hep3B cells; assay: Co-transfection of SQT-Bim-BH3 mRNA with Bcl-2-like Trap mRNAs, % phase confluence; assay type: cell-based
From the text: C32, Bcl-xL del.C24, Mcl-1 del.N/C(2010), and Bcl-xL (D61A) del.C24.

[2] = test system: primary hepatocytes; assay: Apoptosis induction by MC3 LNP-formulated mRNAs in primary hepatocytes cultured in vitro; assay type: cell-based; conditions: LNPs
[3] = test system: HeLa cells; assay: PARP-1 cleavage by SDS-PAGE and Western blotting after transfection of mRNAs encoding SQT-BH3 constructs; assay type: cell-based; conditions: 4 hours after transfection
From the text: The cleavage of PARP-1 was detected by the appearance of a faster-migrating band and concomitant loss of the full-length band by SDS-PAGE and Western blotting. Western blotting with anti-actin antibodies served as a loading control.

[4] = test system: HeLa cells; assay: Long-term live cell imaging of GFP-positive cells after mRNA transfection; assay type: cell-based
[5] = molecular target: T1, MCL-1 (Homo sapiens, UniProt Q07820); assay: Co-immunoprecipitation in lysates of transfected HeLa cells; assay type: binding; conditions: lysates of HeLa cells transfected with mRNAs
T1 construct: performed in lysates of HeLa cells transfected with mRNAs encoding SQT-BH3 constructs; endogenous in cells; host or cells: HeLa

[6] = test system: Hep3B cells; assay: Cell death by YOYO-3 with MC3-formulated LNPs; assay type: cell-based; conditions: relatively high concentration
Procedure: The efficacy of mRNAs encoding SQT-BH3 constructs in inducing cell death was tested both in hepatocellular carcinoma cell lines as well as in primary hepatocytes using lipid nanoparticle (LNP)-formulated constructs. Hep3B cells were treated with varying doses (0.78 ng to 50 ng) of MC3-formulated LNPs in the presence of YOYO-3 (Life Technologies), a DNA dye that is taken up preferentially by dead cells that is used to measure the extent of cell death. MC3 lipid nanoparticles included MC3 50%, DSPC 10%, Cholesterol 38.5%, PEG-DMG 1.5%, N:P ˜5.5.

T1 sequence (Q07820 whole entry): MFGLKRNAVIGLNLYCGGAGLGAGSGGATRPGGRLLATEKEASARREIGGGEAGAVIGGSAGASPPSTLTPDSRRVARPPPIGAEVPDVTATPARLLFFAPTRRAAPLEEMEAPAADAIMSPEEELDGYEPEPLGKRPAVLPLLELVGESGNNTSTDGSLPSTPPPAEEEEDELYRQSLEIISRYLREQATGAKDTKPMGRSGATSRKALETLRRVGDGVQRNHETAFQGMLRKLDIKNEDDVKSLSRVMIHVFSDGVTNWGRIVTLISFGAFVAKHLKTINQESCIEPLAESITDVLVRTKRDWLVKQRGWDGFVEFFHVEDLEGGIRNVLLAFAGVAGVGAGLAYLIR

Row | Molecule | fate of SQT-BimBH3-transfected cells co-transfected with Trap construct [1] | inhibition of SQT-BH3-induced cell death (% phase confluence) ([1]; co-transfected with SQT-Bim-BH3 mRNA, ratio Trap construct:SQT-BH3 construct 1:2, 24 hour period) | PARP-1 cleavage [2] | PARP-1 cleavage, extent [3] | cell-killing activity [4] | co-immunoprecipitation of MCL-1 [5] | apoptosis and cell death (YOYO-3) [6]
1 | Bcl-w (C29S/A128E) BH3 Trap.n9V5: Bcl-2-like trap mRNA, SEQ ID NO: 81, V5 tag (nucleic acid, V5 tag; Synthetic Bcl-w (C29S/A128E)BH3 mRNA sequence with V5 epitope tag) ATGATTCCCAATCCGCTCCTCGGGCTTGACGCTACACCAGCCAGTGCACCAGACACGAGGGCGCTGGTTGCCGATTTCGTGGGATACAAGCTCAGGCAAAAAGGGTACGTAAGCGGTGCCGGGCCCGGGGAGGGACCGGCTGCCGATCCACTCCACCAGGCTATGAGGGCAGCTGGGGACGAATTCGAAACACGCTTTCGGCGGACTTTCTCCGACCTTGCCGCACAGCTACACGTCACTCCCGGGAGCGCTCAGCAGCGCTTCACGCAGGTCTCAGACGAATTGTTCCAAGGCGGCCCTAATTGGGGAAGATTGGTGGCCTTCTTCGTGTTTGGGGCAGCACTGTGCGCTGAGTCCGTGAACAAAGAAATGGAACCCCTCGTTGGCCAAGTCCAAGAATGGATGGTGGAATATCTGGAAACACAGTTAGCGGATTGGATTCACTCATCTGGGGGCTGGGCTGAGTTTACAGCACTGTACGGGGACGGTGCCCTAGAGGAGGCCCGAAGACTGAGGGAAGGCAACTGGGCCAGCGTTCGCACGGTGTTGACCGGCGCGGTTGCTTTGGGCGCTTTGGTTACCGTCGGCGCATTCTTCGCCAGTAAA | remained alive | most potent inhibitor of SQT-BH3-induced cell death; also recorded: to a substantially greater degree than Bcl-xL (D61A) del.C24 BH3 Trap.cFLAG | – | – | – | – | –
2 | Bcl-xL del.C24 BH3 Trap.cFLAG: Bcl-2-like trap mRNA, SEQ ID NO: 83, FLAG tag (nucleic acid, FLAG tag; Synthetic Bcl-xL del.C24 mRNA sequence with FLAG epitope tag) ATGTCCCAGAGCAACAGGGAACTCGTAGTCGATTTCTTGTCCTACAAGCTCAGTCAGAAGGGCTACTCTTGGTCCCAATTTTCCGACGTGGAAGAAAATCGGACAGAAGCCCCTGAGGGAACCGAGAGTGAGATGGAGACCCCGTCTGCAATCAACGGGAACCCTTCTTGGCACTTGGCCGACAGTCCCGCTGTGAATGGCGCCACAGGTCACAGTTCATCACTCGACGCTAGAGAAGTTATACCCATGGCAGCAGTCAAGCAAGCTCTGCGGGAGGCCGGCGACGAGTTCGAACTTCGGTACCGCCGAGCTTTTTCTGACCTGACTAGTCAGCTGCATATTACTCCGGGCACTGCGTACCAGTCGTTCGAACAGGTGGTTAATGAACTATTTCGAGACGGCGTGAATTGGGGCAGAATTGTAGCCTTTTTCTCCTTTGGAGGTGCACTGTGTGTCGAGAGCGTCGATAAGGAAATGCAGGTGTTGGTGAGCCGTATCGCGGCCTGGATGGCCACGTATCTGAACGACCATTTGGAACCATGGATCCAAGAAAACGGGGGTTGGGATACTTTCGTGGAGTTATATGGCAACAATGCTGCAGCGGAAAGTCGCAAGGGCCAGGAACGAGACTATAAAGATGACGACGATAAA | exhibited substantial apoptosis and cell death | – | – | – | – | – | –
3 | SQT-Noxa-BH3: mRNA (SEQ ID NO: 52, FLAG) encoding SQT scaffold with Noxa BH3 domain in N-terminus (nucleic acid, FLAG tag; Synthetic SQT-NoxA-BH3 mRNA sequence with FLAG epitope tag) ATGATCCCAAGACCCGCAGAGCTCGAAGTGGAATGCGCTACCCAACTTAGACGGTTCGGAGACAAGCTGAACTTTCGGCAGAAGCTCCTGGGACTCTCAGAAGCGAAGCCTGCCACCCCCGAAATCCAGGAAATCGTCGACAAGGTCAAGCCGCAGCTTGAGGAAAAGACCAACGAGACTTACGGAAAACTGGAGGCCGTGCAGTATAAGACCCAAGTGTTGGCCTCCACCAACTACTACATTAAGGTCCGCGCCGGCGATAACAAGTACATGCACCTGAAGGTGTTCAATGGTCCTCCGGGACAGAACGCGGACAGGGTGCTGACTGGCTACCAAGTGGACAAGAACAAGGACGACGAGCTGACGGGCTTCGACTACAAGGATGATGATGACAAA | – | – | did not | also induced PARP-1 cleavage, although to a lesser extent than SQT-PUMA-BH3 or SQT-Bim-BH3 | did not show cell-killing activity | able to co-immunoprecipitate | behaved similar to the empty MC3 LNP control and mRNAs encoding SQT
